# Experiment: soluble on expression in E. coli; label from the status in PepcDB or PDB records
row,Sequence,soluble on expression in E. coli
1,MGSDKIHHHHHHMNEKTTTAQKGAPRARVSATRVRSASRTPHATTVNPADLTVHNHPLARRHYRVATAAIEGFVDLVEHCVRVLIPGALIYARPRMGKTHAIDYLALHLGRNRGDILVLRMSCEYHRTDYEGAFFSALLSAAGIRDPQPRFIADKRFALMRRINEQLQMRSGHIVVLFCDEAQRLSKHALEWLRDVHDQLAHHGVRLITFLVGQPQLMEQKAQYQLSGDEQIVARFMIEQLHFRGITGAVEAATCLASYDMTRYPEDTGSTFTAFFYPDAYAAGLRLEQSAAALWNGFVNAHKVAQLAGPIELHMDYFSRAVESVLLNGPQWDSAGLVLDSAYWERAVRESGYVAAQQTVQPEV,not soluble
2,MKGGCVSQWKAAAGFLFCVMVFASAERPVFTNHFLVELHKGGEDKARQVAAEHGFGVRKLEHHHHHH,not soluble
3,MTILAIDTSNYTLGIALLREDTVIAEYITYLKKNHSVRAMPAVHSLLNDCDMAPQDLSKIVVAKGPGSYTGVRIGVTLAKTLAWSLDIPISAVSSLETLAANGRHFDGLISPIFDARRGQVYTGLYQYKNGLLEQVVPDQNVMLADWLEMLKEKDRPVLFLGHDTSLHKQMIEDVLGTKGFIGTAAQHNPRPSELAFLGKEKEAADVHGLVPDYLRLAEAEAKWIESQKLEHHHHHH,not soluble
4,MSIRIIPQDELGSSEKRTADMIPPLLFPRLKNLYNRRAERLRELAENNPLGDYLRFAALIAHAQKVVLYDHPLEMDLTARIKEASAQGKPPLDIHVLPRDKHWQKLLMALIAELKPEMSGPALAVIENLEKASTQELEDMASALFASDFSSVSSDKAPFIWAALSLYWAQMANLIPGKARAEYGEQRQYCPVCGSMPVSSMVQIGTTQGLRYLHCNLCETEWHVVRVKCSNCEQSGKLHYWSLDDEQAAIKAESCDDCGTYLKILYQEKEPKVEAVADDLASLVLDARMEQEGYARSSINPFLFPGEGE,not soluble
5,MGSDKIHHHHHHMKREEIADLMAFVVVAEERSFTRAAARLSMAQSALSQIVRRIEERLGLRLLTRTTRSVVPTEAGEHLLSVLGPMLHDIDSAMASLSDLQNRPSGTIRITTVEHAAKTILLPAMRTFLKSHPEIDIQLTIDYGLTDVVSERFDAGVRLGGEMDKDMIAIRIGPDIPMAIVGSPDYFSRRSVPTSVSQLIDHQAINLYLPTSGTANRWRLIRGGREVRVRMEGQLLLNTIDLIIDAAIDGHGLAYLPYDQVERAIKEKKLIRVLDKFTPDLPGYHLYYPHRRHAGSAFSLFIDRLKYKGAV,not soluble
6,MGSDKIHHHHHHMDLYFVKFRVTSKLTSEIVQGYFLGKLNQIPEYDFFVIPGRYARKYSVDLNLGFEDFLEDFKAKKESALKEVLEASAITDEFFDFWLIQSRKQNLRLVGSEFFRLVESGDHEALRVFIADLFREWSEKLEVEVVGVPLDYEDVSLEVVKEHFEELSTDEVFKLFQREDLRNLPEVFPVLDPLNGVTIREIDVEERIDFVILNYGNEEFSEKFKRFLKEKFGTENVASLPGKVLSKEIVKTREGTLYLLKVEFEEGIIGKAIVSPNLKIKRGESRVKISDEEWMEKIGEMLKEGEESKQEKLKLRNSPQPVQKTTSSD,not soluble
7,MGHHHHHHSHSSVTIGRFQSVRYDVNLEKAKELGIPVVRRITGGGSVFHDEYGEITYSVVISEDYHPMLKNIQDSYRFLAGPLVDALKDLGIEAEFSGLNDIVVRGKKISGSAQTRRRGIILQHGTLMYATRLEI,not soluble
8,MQAVGLITEYNPLHNGHRYHLRQAQQLTNADCVIVVMSGDWLQRGEPAILDKWTRAKLALENGADLVIELPVFFATQPAHLFARGGIELLSALDCTSVVFGAEHPELDFQRLATAIAARQGSFTHYNATFATQFNAALQAATGVTLTAANDMLSFCYYAANQTLAHPMQLLPIKRRQADHATTTIAADSRYASGTAVRQAALAQDWAALKPVVPADTFTALTTQRLQ,not soluble
9,MSLWMYIHKIMKLSYKRVILTRELEDIKKDKPLFEREGFKVLELPLIQTKVLEFNLPDEEFDYIVFQSKKAVKIFLGKVNLKGNKKIVAVGKKTAEELEKLGYKADFIPENESAKGLIELFKRLPKGKVLIPRSKIGRTELIKFLKETSFEVFALDVYTTEYVFYTREELLEKLNKGDFIIFYSPSAVKAFFANLQMHKIPKDSLSLKFVAIGKTTKEELQKHSVKNVITSERPSTEDIVKKLKELARDLQKEGHHHHHH,soluble
10,MSLSIYSVGRWICRSYFRLFFKVEVIGASRIPDEGGLLLCCNHFSNYDPPFVGSFFPRKVRFMAKEELFRFKPLQSLMMAVGAFPVRRGAGDKQALKVGLKLLKEGETLGIFPEGTRSKDGQIGKGLSGVGFFALRSDATVVPCAIVGKYRFFRKVRFVIGEPVPMEELKERKASAEEATEVIMKAIRKLHEQNQMSEGHHHHHH,soluble
11,MGSDKIHHHHHHMRFYTKTHKYYCGIDLHARKKYVCILDSEGTVLVHREINCNPESFLRLVAPYREDLVVGVECMFAWYWLADLCRNEKIEFVLGHALYMKAVHGGKAKSDKIDAHKIAVLLRGGMFPLAYVYPPEMRATRDLLRRRNFFVRKRAELMAHIQNTVTQYNLAPLGIDLGVEENRHEVAQLFHDPEVRKIIEIDVAMIDAFDDVINVLEPDIEKTARQHNLHALKLLRSINGVGKVLGLVMLYEIHDINRFPTVQDFSSYCRLVKCAHESAGKKKGVGGSKIGNVHLKWAFSEAAVFFVRHNPQAKILMEKLVKIHGKGKAISILAHKLARAIFYMLKNNVPFDREKFLATA,not soluble
12,EERRVAYPVLRELTERTGETSALMVWNGNESMCVEQIPSRHQVKHLAPLGARYNEALSSSVQVFLASENEDRVRQLLRSGSITLTGVDEDAVEAYLLRLKESMERGWAVNFGETSIEEVGVASPVYDHRGNMVASVLIPAPKFRVSQDTLNSLGEACAAAAAKVTTRLGGRAPH,soluble
13,PDAPRNLQLSLPREAEGVIVGHWAPPIHTHGLIREYIVEYSRSGSKMWASQRAASNFTEIKNLLVNTLYTVRVAAVTSRGIGNWSDSKSITTIKG,soluble
14,MVRHRLPSSTYYTPAGEPEWSREMFGEQSIAVLSGAYRNPIEMARHVAARCGSYQPFFVMDVAAIERRLEALRVMLPRVRPNYAVACNADPVLARVLSNNIDVNFEVSNTAELELVSMNVEPSRAVFCSQLMTRKAIKNAVLAGCSTFVVESEKQVTDVMNASPEAEIILAVCLPYSTGEVPFGCSVDEIEEILDMAHLLGANVTGIYLELGLRATLEDYITSVHDARSIFETADQKFLTLRRVCFGNLSVPTGADGAVNNEFMSFCNSLNNVIDDLFESNIDFSASIGRFLVTNAFTLCTNVIGKRAMDAKFITNDDFDDGVGFVYQTNDGVYGSFGCKQMDIKPLCKPLDVENDSEEQLHFGTILGPTLDGTDVAQRLMKSRQLRVGEWLVWEQMGAFTIPVDSEHSVPPVYYYSGKECWQKLIHKDEQRRSPSPSVSDNEDIGSDGEGGYASSCEDSEAEMALEPLIEDLNEFF,not soluble
15,MMFDRRFFALVVLLCVSAVRSTEDASDDELNYEMDEGVVVLTDKNFDAFLKKNPSVLVKFYAPWCGHCKHLAPEYEKASSKVSIPLAKVDATVETELGKRFEIQGYPTLKFWKDGKGPNDYDGGRDEAGIVEWVESRVDPNYKPPPEEVVTLTTENFDDFISNNELVLVEFYAPWCGHCKKLAPEYEKAAQKLKAQGSKVKLGKVDATIEKDLGTKYGVSGYPTMKIIRNGRRFDYNGPREAAGIIKYMTDQSKPAAKKLPKLKDVERFMSKDDVTIIGFFATEDSTAFEAFSDSAEMLREEFKTMGHTSDPAAFKKWDAKPNDIIIFYPSLFHSKFEPKSRTYNKAAATSEDLLAFFREHSAPLVGKMTKKNAATRYTKKPLVVVYYNADFSVQYREGSEYWRSKVLNIAQKYQKDKYKFAVADEEEFAKELEELGLGDSGLEHNVVVFGYDGKKYPMNPDEFDGELDENLEAFMKQISSGKAKAHVKSAPAPKDDKGPVKTVVGSNFDKIVNDESKDVLIEFYAPWCGHCKSFESKYVELAQALKKTQPNVVLAKMDATINDAPSQFAVEGFPTIYFAPAGKKSEPIKYSGNRDLEDLKKFMTKHGVKSFQKKDEL,not soluble
16,MGSDKIHHHHHHMKQEFLHIASSLWATVAAQISRHTGQTFAPESLTPIGGGCINQTFCIRDHERQYFVKLNKAGNLAMFESEAAGLGEILDSASLRVPQPLCCGSHHDDAWLVLEFIDLQNRGNAAALGIGLANMHRHTAETFGWIRDNTIGSTPQRNATASDWISFWRQHRLGYQLNLARKNGHTGSLQSLGERLLSEFQHFFTDTLPLPSLLHGDLWGGNYAFDQDGQPVIFDPAVYYGDREADLAMTELFGGFPPDFQAAYRDTWPVETGYTTRKQLYNLYHILNHLNLFGPQYLSQAEITMKKLLAELY,not soluble
17,MSLQRGAGQYFAGKRCFVTGAASGIGRATALRLAAQGAELYLTDRDRDGLAQTVCDARALGAQVPEHRVLDVSDYQDVAAFAADIHARHPSMDVVLNIAGVSAWGTVDQLTHDQWSRMVAINLMGPIHVIETLVPPMVAAGRGGHLVNVSSAAGLVGLPWHAAYSASKYGLRGLSEVLRFDLARHGIGVSVVVPGAVKTPLVNTVEIAGVDRDDPRVNRWVERFSGHAVTPEKAADKILAGVTRNRYLVYTSADIRALYAFKRYAWWPYTLVMRRVNVFFTRALRPGEGHHHHHH,soluble
18,MLLSPEQFSRLSEYAAYSRRKLKDMLSDFQQDGKFYSYLSVDGQTINIDGFRAFLIDYFGADLPSDLVDQLFLSFSKPPIKERRTSLFEDAISTVRAKFSESLSGRMAGLNIAGGSGQQTDRSQSSEPQALVCIPEDDVMGPRVANNDSQEPRIPLKPLICTLSLLEADTPENKLDVVFHVYDSDGNGFLDKSEIDGIIEQMMNVARYQQWDTIELEQVIRQMMVDIDYDNDGIVSFDEWRRGGLTNIPLLVLLGFDTEMKEDGSHVWRLRHFTKPTYCNACCSILVGWGGKQGLSCSLCKYTVHERCVRSAATNCIRTYSSRQQDKLYHHWQDANATAKCVKCKATVGVFQGKGCRWCHNYVHHRCMSALAQECDLGALVHHILPPTHIFPAFLERKTSTSLKNHNFSSHSASLLQAVSPSNDCRPLLVLVNPKSGGKQGVKILQKFEYLLNPRQVYDLSKTGPEPGLQLFSTLKNCNILVCGGDGTIGWVLESMDKMTFPHGRPPVAVLPLGTGNDLARCLRWGGGYENENLHKILEQIEKSSLIDMDRWQIKIEITENKSARRASEKGDTPPYSIINNYFSIGVDASIAHRFHVMREKFPEKFNSRMRNKLWYFELGTSETLSSSCKNLHEQIDILCDGESIDLGQDASLEGIALLNIPSIYGGSNLWGRSRKSKGRMPGLFPMKNAEKMQLQTRVQDIGDGLIELVGLESAMQMGQIKAGVRGARRLSQCSTVVIQTHKSFPMQIDGEPWMQPPCIIQITHKNQAKMLVGEFRHILELSINFFLFTAAAPRKRSSWMLLKRQSTNDDN,not soluble
19,MAEPKSFNIPYRSKLTERIEPGQTLIIRGKTIDESKRFNINLHKDSPDFSGNDVPLHLSIRFDEGKIVYNAYTKGTWGKEERAKNPIKKGDDFDIRIRAHDSKFQVSINHKEVKNFEHRIPLNSVSHLSIDGDVVLNHVQWGGKYYPVPYESGIAADGLVPGKTLVVYGTPEKKAKKFNINLLKKNGDIALHFNPRFDEKANGFMCAKPTPGSVVRNSLVNGEWGNEEREGKNPFERLTAFDLEIRNEEFAFQIFVNGERFASYAHRVDPHDIAGLQIQGDIELTGIQVVNNQPAQE,not soluble

# Source: the DeepSol protein solubility set
